According to patent US20180038858A1 (published 2018):
Bridge positions count the residues as written; N and C are the ends. * marks the point of attachment. Biotin = O=C1N[C@H]2[C@H](CS[C@H]2CCCCC(=O)*)N1

Tests used:
[1] = target: hCCR5 (human, UniProt P51681 1-352); assay: cell-based or functional assay
[2] = target: T1, CCR1 on peripheral blood monocytes (human, UniProt P32246 1-355); assay: flow cytometry, biotinylated chemokine (1 µM) detected with fluorophore-streptavidin, on blood monocytes of a sarcoidosis patient
T1 construct: whole, on cells; also called chemokine (C-C motif) receptor 1
T1 sequence (looked up): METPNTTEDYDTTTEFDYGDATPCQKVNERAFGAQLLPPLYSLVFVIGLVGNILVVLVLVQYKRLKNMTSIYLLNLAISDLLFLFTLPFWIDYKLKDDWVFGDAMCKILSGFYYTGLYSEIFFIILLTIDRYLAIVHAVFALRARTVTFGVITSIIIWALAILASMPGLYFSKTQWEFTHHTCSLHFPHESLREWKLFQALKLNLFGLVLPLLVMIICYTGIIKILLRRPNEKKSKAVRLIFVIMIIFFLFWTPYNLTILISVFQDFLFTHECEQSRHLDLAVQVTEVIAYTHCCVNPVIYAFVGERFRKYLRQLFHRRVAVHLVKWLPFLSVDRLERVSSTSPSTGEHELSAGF
Protocol: Peripheral blood from patients and healthy controls was collected in heparin tubes. The red blood cells were lysed using Fix Buffer (Phosphate Buffer Saline (PBS) citrate with 4% paraformaldehyde) for four minutes at 37° C. and Lysing buffer (PBS with 10 mM Tris and 160 mM NH4Cl, pH 7.5) for 15 min at 37° C. The cells were washed in PBS with 2% Bovine Growth Serum, incubated with 10% human serum 15 min at room temperature (RT) and stained with cell specific antibodies together with biotinylated chemokine (1 μM) or the corresponding chemokine receptor antibody at 4° C. for 30 min (Table 1). The biotinylated chemokine was detected via the interaction between biotin and a fluorophore conjugated Streptavidin. The samples were analysed by flow cytometry on a FACS Canto flow cytometer with the FACSDiva software (BD Biosciences).

hCCR5, sequence (P51681 whole entry): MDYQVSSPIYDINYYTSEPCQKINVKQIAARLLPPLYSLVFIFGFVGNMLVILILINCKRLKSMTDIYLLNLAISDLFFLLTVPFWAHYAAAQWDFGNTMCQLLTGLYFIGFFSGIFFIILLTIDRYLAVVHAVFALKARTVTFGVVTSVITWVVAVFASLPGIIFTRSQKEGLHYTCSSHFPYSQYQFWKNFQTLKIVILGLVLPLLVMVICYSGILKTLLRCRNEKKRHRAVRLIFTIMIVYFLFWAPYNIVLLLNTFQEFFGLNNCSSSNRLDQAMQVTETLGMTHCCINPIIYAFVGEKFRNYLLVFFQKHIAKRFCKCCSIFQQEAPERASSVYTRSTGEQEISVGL

EC50, agonist activity in an Aequorin assay [1]: 0.5 nM
binding result [2]: binds
B1: biotinRANTES (CCL5), RANTES derivatised at Lys(67) with Biotin (ligand)
chain: H-SPYSSDTTPCCFAYIARPLPRAHIKEYFYTSGKCSNPAVVFVTRKNRQVCANPEKKWVREYINSLEK(Biotin)S-OH
modifications: disulfide 10-34, 11-50
notes: Residues 1-68 of mature human RANTES; also called biotinylated RANTES; bRANTES
